Assay [1] concerns the target Hsc82 C61-ATTO 550 (S. cerevisiae) (UniProt P15108).
For assay [2], the target named is Hsp82 C61-ATTO 550 (S. cerevisiae) (UniProt P02829).
Assay [3] addresses Hsc82 C61-ATTO 550 (S. cerevisiae) (UniProt P15108). The assay is described as follows: FRET or BRET; subunit exchange after mixing of NTD- and MD-labeled dimers, no nucleotide; standard buffer (40 mM HEPES pH 7.5, 150 mM KCl, 5 mM MgCl2), 30 °C. Background: Bioluminescence resonance energy transfer reports proximity on the nanometre scale.
Assay [4] shares this target. The assay is described as follows: FRET or BRET; FRET chase: tenfold excess of unlabeled Hsp90 added to the preformed FRET complex (400 nM), without nucleotide, 30 °C; apparent.
The target is the same in assay [5]. Nature of the assay: FRET or BRET; FRET chase: tenfold excess of unlabeled Hsp90 added to the FRET complex preequilibrated 30 min with 2 mM ATP, 30 °C; apparent.
Assay [6] addresses Hsp82 protomer of the NM-FRET heterodimer (S. cerevisiae) (UniProt P02829). Nature of the assay: FRET or BRET; subunit exchange after mixing of NTD- and MD-labeled dimers, no nucleotide; standard buffer (40 mM HEPES pH 7.5, 150 mM KCl, 5 mM MgCl2), 30 °C.
In assay [7] the target is Hsp82 C61-ATTO 550 (S. cerevisiae) (UniProt P02829). Described as above.
The target is the same in assay [8]. Nature of the assay: FRET or BRET; FRET chase: tenfold excess of unlabeled Hsp90 added to the FRET complex preequilibrated 30 min with 2 mM ATP, 30 °C; apparent.

Consider “Cpr6 (from UniProt P53691 1-371) (natural protein)”, for which the ATPγS-induced closing rate kapp of the Hsc82 NM-FRET dimer (C61-ATTO 550 with C381-ATTO 488 protomers) with 4 µM Cpr6, percentage of kapp without co-chaperone in assay [1] is 108%. In assay [2], this molecule registered an ATPγS-induced closing rate kapp of the Hsp82 NM-FRET dimer (C61-ATTO 550 with C385-ATTO 488 protomers) with 4 µM Cpr6, percentage of kapp without co-chaperone of 239%.

Molecule “Hsc82 C381-ATTO 488 (from UniProt P15108 1-705) (natural protein)” returned a subunit exchange rate (kse) in assay [3] of 0.037 s⁻¹. Further, the reopening of closed state rate, without nucleotide (t½) in assay [4] amounted to 32 s. For the same molecule, the reopening of closed state rate, with ATP (kapp as headed; apparent half-life by the legend) in assay [5] came out at 0.7 min⁻¹.

Regarding “Hsc82 protomer of the NM-FRET heterodimer (from UniProt P15108 1-705) (natural protein)”, in assay [6], the subunit exchange rate (kse) was determined as 0.03 s⁻¹. For “Hsp82 C385-ATTO 488 (from UniProt P02829 1-709) (natural protein)”, the subunit exchange rate (kse) in assay [7] is 0.034 s⁻¹. Further, the reopening of closed state rate, with ATP (kapp as headed; apparent half-life by the legend) in assay [8] was 0.7 min⁻¹.

“p23/Sba1 (from UniProt P28707 1-216) (natural protein)” came in with an ATPγS-induced closing rate kapp of the Hsc82 NM-FRET dimer (C61-ATTO 550 with C381-ATTO 488 protomers) with 4 µM Sba1, percentage of kapp without co-chaperone in assay [1] of 78%.

B1: Sti1 (natural protein)
chain: MSLTADEYKQQGNAAFTAKDYDKAIELFTKAIEVSETPNHVLYSNRSACYTSLKKFSDALNDANECVKINPSWSKGYNRLGAAHLGLGDLDEAESNYKKALELDASNKAAKEGLDQVHRTQQARQAQPDLGLTQLFADPNLIENLKKNPKTSEMMKDPQLVAKLIGYKQNPQAIGQDLFTDPRLMTIMATLMGVDLNMDDINQSNSMPKEPETSKSTEQKKDAEPQSDSTTSKENSSKAPQKEESKESEPMEVDEDDSKIEADKEKAEGNKFYKARQFDEAIEHYNKAWELHKDITYLNNRAAAEYEKGEYETAISTLNDAVEQGREMRADYKVISKSFARIGNAYHKLGDLKKTIEYYQKSLTEHRTADILTKLRNAEKELKKAEAEAYVNPEKAEEARLEGKEYFTKSDWPNAVKAYTEMIKRAPEDARGYSNRAAALAKLMSFPEAIADCNKAIEKDPNFVRAYIRKATAQIAVKEYASALETLDAARTKDAEVNNGSSAREIDQLYYKASQQRFQPGTSNETPEETYQRAMKDPEVAAIMQDPVMQSILQQAQQNPAALQEHMKNPEVFKKIQTLIAAGIIRTGR
Molecule B1 showed an ATPγS-induced closing rate kapp of the Hsc82 NM-FRET dimer (C61-ATTO 550 with C381-ATTO 488 protomers) with 4 µM Sti1, percentage of kapp without co-chaperone in assay [1] of 19%. This molecule also displayed an ATPγS-induced closing rate kapp of the Hsp82 NM-FRET dimer (C61-ATTO 550 with C385-ATTO 488 protomers) with 4 µM Sti1, percentage of kapp without co-chaperone in assay [2] of 40%.

B2: Aha1 (natural protein)
chain: MVVNNPNNWHWVDKNCIGWAKEYFKQKLVGVEAGSVKDKKYAKIKSVSSIEGDCEVNQRKGKVISLFDLKITVLIEGHVDSKDGSALPFEGSINVPEVAFDSEASSYQFDISIFKETSELSEAKPLIRSELLPKLRQIFQQFGKDLLATHGNDIQVPESQVKSNYTRGNQKSSFTEIKDSASKPKKNALPSSTSTSAPVSSTNKVPQNGSGNSTSIYLEPTFNVPSSELYETFLDKQRILAWTRSAQFFNSGPKLETKEKFELFGGNVISELVSCEKDKKLVFHWKLKDWSAPFNSTIEMTFHESQEFHETKLQVKWTGIPVGEEDRVRANFEEYYVRSIKLTFGFGAVL
In assay [1], B2 returned an ATPγS-induced closing rate kapp of the Hsc82 NM-FRET dimer (C61-ATTO 550 with C381-ATTO 488 protomers) with 4 µM Aha1, percentage of kapp without co-chaperone of 616%. This molecule had an ATPγS-induced closing rate kapp of the Hsp82 NM-FRET dimer (C61-ATTO 550 with C385-ATTO 488 protomers) with 4 µM Aha1, percentage of kapp without co-chaperone in assay [2] of 868%.
